These results are taken from article PMC7588069.

First the molecules themselves.
B1: Liver X Receptor α (receptor)
chain: MSLWLGAPVPDIPPDSAVELWKPGAQDASSQAQGGSSCILREEARMPHSAGGTAGVGLEAAEPTALLTRAEPPSEPTEIRPQKRKKGPAPKMLGNELCSVCGDKASGFHYNVLSCEGCKGFFRRSVIKGAHYICHSGGHCPMDTYMRRKCQECRLRKCRQAGMREECVLSEEQIRLKKLKRQEEEQAHATSLPPRASSPPQILPQLSPEQLGMIEKLVAAQQQCNRRSFSDRLRVTPWPMAPDPHSREARQQRFAHFTELAIVSVQEIVDFAKQLPGFLQLSREDQIALLKTSAIEVMLLETSRRYNPGSESITFLKDFSYNREDFAKAGLQVEFINPIFEFSRAMNELQLNDAEFALLIAISIFSADRPNVQDQLQVERLQHTYVEALHAYVSIHHPHDRLMFPRMLMKLVSLRTLSSVHSEQVFALRLQDKKLPPLLSEIWDVHE
modifications: 35S-radiolabeled
B2: Peroxisome Proliferator Activated Receptor α (receptor)
chain: MVDTESPLCPLSPLEAGDLESPLSEEFLQEMGNIQEISQSIGEDSSGSFGFTEYQYLGSCPGSDGSVITDTLSPASSPSSVTYPVVPGSVDESPSGALNIECRICGDKASGYHYGVHACEGCKGFFRRTIRLKLVYDKCDRSCKIQKKNRNKCQYCRFHKCLSVGMSHNAIRFGRMPRSEKAKLKAEILTCEHDIEDSETADLKSLAKRIYEAYLKNFNMNKVKARVILSGKASNNPPFVIHDMETLCMAEKTLVAKLVANGIQNKEAEVRIFHCCQCTSVETVTELTEFAKAIPGFANLDLNDQVTLLKYGVYEAIFAMLSSVMNKDGMLVAYGNGFITREFLKSLRKPFCDIMEPKFDFAMKFNALELDDSDISLFVAAIICCGDRPGLLNVGHIEKMQEGIVHVLRLHLQSNHPDDIFLFPKLLQKMADLRQLVTEHAQLVQIIKKTESDAALHPLLQEIYRDMY
modifications: 35S-radiolabeled
B3: Farnesoid X Receptor (receptor)
chain: MVMQFQGLENPIQISPHCSCTPSGFFMEMMSMKPAKGVLTEQVAGPLGQNLEVEPYSQYSNVQFPQVQPQISSSSYYSNLGFYPQQPEEWYSPGIYELRRMPAETLYQGETEVAEMPVTKKPRMGASAGRIKGDELCVVCGDRASGYHYNALTCEGCKGFFRRSITKNAVYKCKNGGNCVMDMYMRRKCQECRLRKCKEMGMLAECMYTGLLTEIQCKSKRLRKNVKQHADQTVNEDSEGRDLRQVTSTTKSCREKTELTPDQQTLLHFIMDSYNKQRMPQEITNKILKEEFSAEENFLILTEMATNHVQVLVEFTKKLPGFQTLDHEDQIALLKGSAVEAMFLRSAEIFNKKLPSGHSDLLEERIRNSGISDEYITPMFSFYKSIGELKMTQEEYALLTAIVILSPDRQYIKDREAVEKLQEPLLDVLQKLCKIHQPENPQHFACLLGRLTELRTFNHHHAEMLMSWRVNDHKFTPLLCEIWDVQ
modifications: 35S-radiolabeled

The test addresses GST fusion with the receptor interaction domains (RID) of NCoRδ (region equivalent to amino acids 1817–2453 of NCoRω). Kind of test: pull-down; GST fusion protein (~50 ng) immobilised on ~10 μl glutathione-agarose; 35S-radiolabeled in vitro translated nuclear receptor (2–5 μl TnT product) in 120 μl HEMG buffer (4 mM HEPES pH 7.8, 0.2 mM EDTA, 5 mM MgCl2, 10% glycerol, 100 mM KCl, 0.1% Nonidet P-40, 1.5 mM DTT) with 10 mg/ml BSA; 3 hr at 4°C; eluted with 10 mM glutathione, SDS-PAGE, PhosphorImager.
For “Peroxisome Proliferator Activated Receptor γ (from UniProt P37231 1-505)”, the relative binding to NCoRδ versus NCoRω (ratio (NCoRδ versus NCoRω)) came out at 0.88. Regarding “Thyroid Hormone Receptor α (from UniProt P10827-2 1-410)”, the relative binding to NCoRδ versus NCoRω (ratio (NCoRδ versus NCoRω)) turned out to be 0.42. As to B1, the relative binding to NCoRδ versus NCoRω (ratio (NCoRδ versus NCoRω)) was found to be 0.51.

B2: the relative binding to NCoRδ versus NCoRω (ratio (NCoRδ versus NCoRω)) was determined as 0.79. Consider B3, for which the relative binding to NCoRδ versus NCoRω (ratio (NCoRδ versus NCoRω)) amounted to 0.35.
